Test results published in publication PMC11237882 (2024).

Experiments:
Experiment in all cases: BLI (SUMO-peptide on tip, monomeric EVH1)
PRRC2B = molecular target: T1, PRRC2B (Homo sapiens (Human), UniProt Q5JSZ5)
T1 chain: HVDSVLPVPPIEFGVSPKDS

DSCAM = molecular target: T2, DSCAM (Homo sapiens (Human), UniProt O60469)
T2 chain: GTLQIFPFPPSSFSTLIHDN

RARA = molecular target: T3, RARA (Homo sapiens (Human), UniProt P10276)
T3 chain: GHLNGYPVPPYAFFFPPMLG

PCDH15 = molecular target: T4, PCDH15 (Homo sapiens (Human), UniProt Q96QU1)
T4 chain: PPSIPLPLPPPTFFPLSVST

FAT1 = molecular target: T5, FAT1 (Homo sapiens (Human), UniProt Q14517)
T5 chain: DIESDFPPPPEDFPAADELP

APBB1IP_1 = molecular target: T6, APBB1IP_1 (Homo sapiens (Human), UniProt Q7Z5R6)
T6 chain: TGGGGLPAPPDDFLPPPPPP

B1: ENAH (protein)
chain: MSEQSICQARAAVMVYDDANKKWVPAGGSTGFSRVHIYHHTGNNTFRVVGRKIQDHQVVINCAIPKGLKYNQATQTFHQWRDARQVYGLNFGSKEDANVFASAMMHALEVLNS
- Kd (PRRC2B): > 150 µM
- Kd (DSCAM): > 150 µM
- Kd (RARA): > 150 µM

B2: HOMER1 (protein)
chain: MGEQPIFSTRAHVFQIDPNTKKNWVPTSKHAVTVSYFYDSTRNVYRIISLDGSKAIINSTITPNMTFTKTSQKFGQWADSRANTVYGLGFSSEHHLSKFAEKFQEFKEAARLA
- Kd (PCDH15): > 150 µM
- Kd (PRRC2B): 100 µM
- Kd (FAT1): 98 µM
- Kd (RARA): 100 µM
- Kd (APBB1IP_1): > 150 µM
